Patent US20250186535A1, “OPHTALMIC COMPOSITIONS AND METHODS OF USING SAME” (Tarsier Pharma Ltd., priority 2021, published 2025)
*1 amine or outer side, *2 acyl side, *3 side chain or, on linkers, in order; H or OH if unused. Where a SMILES comes first, the peptide text is derived from it. [ ]: non-standard residue; d: D form. X1 = C[N+](C)(C)CCOP(=O)([O-])Oc1ccc(/N=N/c2cc(C[C@H](N[*:1])C(=O)[*:2])ccc2O)cc1

Assay: Solubility of drug substance in water
Format: physicochemical
Experimental: Drug Substance [TRS]: is a trifluoroacetate [TFA] salt of phosphorylcholine-tuftsin conjugate represented by Formula 1, SEQ ID NO: 2 (as shown herein). Molecular formula: C43H68N13013P, Appearance: Yellow to orange solid. Solubility: >40 mg/ml in water.

C[C@@H](O)[C@H](N)C(=O)N[C@@H](CCCCN)C(=O)N1CCC[C@H]1C(=O)N[C@@H](CCCNC(=N)N)C(=O)NCC(=O)N[C@@H](Cc1ccc(O)c(/N=N/c2ccc(OP(=O)([O-])OCC[N+](C)(C)C)cc2)c1)C(=O)O [TRS, phosphorylcholine-tuftsin conjugate] (H-TKPRG[X1]-OH)
solubility: > 40 mg/mL
